{"source": "the DeepSol protein solubility set", "data": [{"assay": "soluble on expression in E. coli; label from the status in PepcDB or PDB records", "values": [{"sequence": "MGSDKIHHHHHHAAGQPRLVKSLVPDMPSQAPDYFCTWNLQGYVASYKSTELTRAAMTEDYLFGDGLYQNWVDCYPAIRKDLYFVMDDSWDIPKDVNDSPNLYLGCVELSSDRFPSFRGDAVERLKQLSEQIKSKGWKGVGGWICAQKAETHAAIPEEEYWKQRIKAANAAGFDYWKVDWGKEDRNGEWRRKLTAIGKRYAPHLYIEHALRNEFIEFSDVFRTYDVENITAQPITIRRICDLLPYKTVEGAKGIINCEDEPYIAVGLGCAIGVMRHPFAETLPDGAQDFVFPPVGRDIKRRLDEVVRGVRWHRIAEPFAVGYGTFAIDSVKLTDHWILQENETWNKGRTVGADVTADAPARVARNMKLPEVSGAPLSVCPFVLASRYPNGAVAVSTIGRNVGREYVTEKVAVSISVDRWDIPIGLFGYFKEVTMVFPSPLKTGKHTVFAQDLAGENPVDITSNVVIKDNRLIIPGEVISRVGLMNASEGDCSDPGMVIRVM", "soluble on expression in E. coli": "not soluble"}, {"sequence": "MSSPSFPRVLIFDSGVGGLSVYREIEARLPQLNYIYLFDNAAYPYGELTQETLIARVDTLVTRMVEQERIDLVVIACNTASTIVLPVLRAKLTIPVVGVVPAIKPASLIASKAIGLIATPATVKRQYTQELIRDFSANKNVELLGSTRLVNMAEEKLRGKPLDLEELASILQPLKNTIDVAVLGCTHFPLIKEEIQQVLGEQVQLIDSGLAIARRVQELLGIEQAVGAKQKHRIYASAPPWEESALNIKLEQLGFNPVQPFLHPI", "soluble on expression in E. coli": "not soluble"}, {"sequence": "MKSEIIAVGTEILTGQIVNTNSQFLSEKFAELGIDVYFQTAVGDNEERLLSVLKIAKERSDLIVLCGGLGPTEDDLTKQTLAKFLKRELVFDKTAQERLDEFFASRPTSMRTPNNECQAQIIAGSQPLSNKTGLAVGGLLEADGVTYVVLPGPPSELKPMVNKELLPYLSKTSEKLYSRVLRFFGIGESHLVTLLHDLIAEQTDPTIAPYAKTGEVTIRLSTKAHRQKEADSKLDKLEKKIITIDNLADYFYGYGEENSLPQVVFDLLKEKGKTITAAESLTAGLFQARLADFAGASDIFKGGFITYSIEEKARMLGIPFEDLQLHGVVSAFTAEKMAERSRQLTQADLAISLTGVAGPDSLEGQPAGTVFIGLSSSKRTMAIKVLIGGRSRSDVRYIAVLHAFNLVRQTLLSHKNLV", "soluble on expression in E. coli": "soluble"}, {"sequence": "MMSDRDYTLIIDKSGSMSTPDQAGGRSRWEIAQESTLALARKCEQFDPDGITVYLFSGKFKRYDDVTSAKVAQIFLENDPAGTTNLAGVLQDALNNYFQRKAAGKTKPNGETILVITDGEPDDRKAVFETIIHATRQMERDEELGISMIQVGSDAQATKFLKALDDQLQSVGAKFDICDTITLEDLEDMSLADVLMNAITDLEHHHHHH", "soluble on expression in E. coli": "soluble"}, {"sequence": "SNAMKAPELQIQQWFNSATDLTLADLRGKVIVIEAFQMLCPGCVMHGIPLAQKVRAAFPEDKVAVLGLHTVFEHHEAMTPISLKAFLHEYRIKFPVGVDQPGDGAMPRTMAAYQMRGTPSLLLIDKAGDLRAHHFGDVSELLLGAEIATLLGEAAPSV", "soluble on expression in E. coli": "soluble"}, {"sequence": "HHHHHHMVRAIDEDCSQYEPIPGSQKAALGYNILTQEDAQSVYDASYYGGQCETVYNGEWRELRYDSTCERLYYGDDEKYFRKPYNFLKYHFEALADTGISSEFYDNANDLLSKVKKDKSDSFGVTIGIGPAGSPLLVGVGVSHSQDTSFLNELNKYNEKKFIFTRIFTKVQTAHFKMRKDDIMLDEGMLQSLMELPDQYNYGMYAKFINDYGTHYITSGSMGGIYEYILVIDKAKMESLGITSRDITTCFGGSLGIQYEDKINVGGGLSGDHCKKFGGGKTERARKAMAVEDIISRVRGGSSGWSGGLAQNRSTITYRSWGRSLKYNPVVIDFEMQPIHEVLRHTSLGPLEAKRQNLRRALDQYLM", "soluble on expression in E. coli": "soluble"}, {"sequence": "VELIGRSEWINQYRRRLQQLSETDIAVWLYGAPGTGRMTGARYLHQFGRNAQGEFVYRELTPDNAPQLNDFIALAQGGTLVLSHPEHLTREQQYHLVQLQSQEHRPFRLIGIGDTSLVELAASNHIIAELYYCFAMTQIACLPLT", "soluble on expression in E. coli": "soluble"}, {"sequence": "EHMQHLAMKGARFDIVLLPSSPTAHGLEQVQFQVAANKGNPPRPLNKVASGGELARISLALQVVASQYTQVPTLIFDEVDTGIGGGVAEMVGKALRALGRKHQVLAVTHLPQVASCGENHWRVRKHSEGEQTVSEISILDEIQRIEEVARMLGGEVITDTTRQHAAELLQLASKNSLF", "soluble on expression in E. coli": "not soluble"}, {"sequence": "MGALAELAGDEKNGEGSRTFVFTNEGHTLGNALKTIIARYPEVDFCGYTIPHPTEQKLHFRIQSRRDRAIDILKRGLEDLEGLCDHTIVTFEKEMAEFNAMKVENLEHHHHHH", "soluble on expression in E. coli": "not soluble"}, {"sequence": "MGSDKIHHHHHHDWLDLNTTSSVETGQAIVTLDDAQIALNGIYRLASGHSYYGDNYWYYGDCRAADVQARITKGDGKRVSPYYEYNVLASDNLNIVLPWNTVYKVIRQTNNLIQKIESGSIQSSDTKELNRIKSEALVMRGLSLFNLTRLFGMPYTNDKGASLGVPIETSPSDPTHKPSRSTVAQCYEQVVSDMSNALSGLRQETSNGYINYWAAQALLSRVYLNMGEYQKAYDAATDVIKNNGGRYQLYSYEEYPNVWGQDFQSESLFELYITLSEPSGGTGGEGAPMVYANEATVDWNNLILSEDFLNLLNEDPKDVRHCLTKESVIENNTGLPAAAMHEKVYLAKFPGKTGDDPKTNNICIIRLSEVYLNAAEAGLKKGTDIEEAQGYLNDIISRRTTDTSQQVSTETFTLDRILKERRKELVGEGEVFYDYLRNGLAIERKGSWHLETLKASNAQKIEATDLRIALPIPQSEIDANPNIQQNPR", "soluble on expression in E. coli": "not soluble"}, {"sequence": "SLEQENMEQRVKHESEELLQKFKSTSNLDELIESLGGLGEEAQREAGESLEALKRPVKEMMNDENNHLPQKLHQLKEVVSQLEPDHLKQGAVKKFVNKILGRSPMEQYAQRYKTVEAQVENIIEALLTGKDKLQEDTLMLTQLKGVARERISHLEEQIEMGKQLNAMLESEMTSEEWKNNPTALKKGQQKVISRIKNMSQAIMVLQQSLASVDLIVENNEKLEEAIFNAITMTKNIITVTASIQLALGNQKKVINAVQNVNEATENMLLSNAEMLKKNTEDTLKTLEEPAIAIESFRKAYQDVFAAIELTEQSNERIVSSGKKFIAELDTLNKEMKTKLIESKSTSSS", "soluble on expression in E. coli": "soluble"}, {"sequence": "MGSDKIHHHHHHMDIKQLKFLIALDETRHFGQAAARCNITQPTLSMRLRNLEEELGLPLVNRGQRFEGFTAPGERVLAWARTVLAAYDGLQAEAAACRGHLVGTLRLGVVPMSSFDPLPLLHRLHQLHPNLRFELSSLSSEQVLEQLASNRIDLGVSYLERLDSERFDSLTLDETRMGLLYDRRHFTFGDTPLSWADLVELPLGTLTSGMHFRQSIDHNFHSRGLQPNPLIQTDAVHQLLQAVHGGFCCAIMPLDGGLETLTEHLHLHPIADACTLARLGLIMRRSAPRSALAEACFALVAEIPR", "soluble on expression in E. coli": "not soluble"}, {"sequence": "MTADIRFDEKGLVPAIVQDAQSKEVLTLAYMNKESLEKTLETGETWFYSRSRQELWHKGATSGNVQRVVDIRYDCDADALLVLVEPAGPACHTGSYSCFSRSLDGAARTPAADRFAILNELEQIIAKRDAERPEGSYTTYLFEKGVDKILKKVGEEAAEVIIAAKNQNHEELKWEAADLLYHLLVLLREQKLPLDAVLATLAERHAQKVGAGDKKE", "soluble on expression in E. coli": "not soluble"}, {"sequence": "MSLRTILVTGASGFVGGALCRQLATLGSFAIRAASRDLGGASVAGIQAVTVADLSATTDWARALSGVDLVVHAAARVHVMKETASDSLAEFRRVNVDGTLNLARQAAAAGVRRFIFISSIKVNGESSQPGQPLRADDSPAPQDAYGVSKHEAEQGLRQLAAATGMEVVVIRPVLVYGPGVKANFHSMMRWLQRGVPLPFGAVCNRRSLVSLANLVDLVVTCIDHPRAANQTFLASDGDDVSLTQLLRALGLALGRPARLLPVPAGLLRGAVLLIGRRDLAQRLFGTLQVDIEKNRQLLGWYPPCTLEQGLNMTARSFLGARREGHHHHHH", "soluble on expression in E. coli": "soluble"}, {"sequence": "MIVLETERLNLRWFDIKDAPFILELVNDPAWIQFIGDKGVRNLEDAKNYIVNGPIDMYNKLRFGLYLVERKEDLTPLGMCGLIKRDSLEDVDIGFAFLETFRSKGYGYESASAIIEYGVQKLGMKRIVAITSIDNIASGKLLEKVGLRFEKIISDSGEDLKLFGYNA", "soluble on expression in E. coli": "not soluble"}, {"sequence": "TVIYDKNEKQAGTLYGQKGTYVELDAISDDLENAVISTEDRSFYKNSGINYKRMLLAIVTLGYSGGGSTITQQLAKNAFLTQEQTVKRKAREFFLALELTKKYSKKEILTMYLNNAYFGNGVWGVEDASQKYFGTSASRLTLDEAATLAGMLKGPGIYNPLYSI", "soluble on expression in E. coli": "not soluble"}, {"sequence": "MSLIYQIAKEFDFCYGHRVWSQELNPDFSLDPCLSCRHLHGHQGKVIVHLESRELQRGMVTDFAHLNWFKRFIDEVLDHRFIIDIDDPLFPTLLPHFADKSALVWMEEGYARVDFERIKGESSPILELYESFVVVRFVPTSESIASWLLELLRSRIQPLGVKVSSVEFLETPKSRARVYNEGHHHHHH", "soluble on expression in E. coli": "soluble"}, {"sequence": "QQEVYGMMPRDETDSKTASASPWKSARLMVHTVATFNSIKER", "soluble on expression in E. coli": "soluble"}, {"sequence": "MDTHKVFVNRIINMRKIKLIGLDMDHTLIRYNSKNFESLVYDLVKERLAESFHYPEEIKKFKFNFDDAIRGLVIDSKNGNILKLSRYGAIRLSYHGTKQISFSDQKKIYRSIYVDLGDPNYMAIDTSFSIAFCILYGQLVDLKDTNPDKMPSYQAIAQDVQYCVDKVHSDGTLKNIIIKNLKKYVIREKEVVEGLKHFIRYGKKIFILTNSEYSYSKLLLDYALSPFLDKGEHWQGLFEFVITLANKPRFFYDNLRFLSVNPENGTMTNVHGPIVPGVYQGGNAKKFTEDLGVGGDEILYIGDHIYGDILRLKKDCNWRTALVVEELGEEIASQIRALPIEKKIGEAMAIKKELEQKYVDLCTRSIDESSQQYDQEIHDLQLQISTVDLQISRLLQEQNSFYNPKWERVFRAGAEESYFAYQVDRFACIYMEKLSDLLEHSPMTYFRANRRLLAHDIDIAAALEHHHHHH", "soluble on expression in E. coli": "soluble"}, {"sequence": "MGSDKIHHHHHHSDKKNTADESEKGVSTVLPDTKNEVAVQILKKRDFHHELVSNGKISARGKADLRFETGEVIAHIYVKNGDRVQKGQKLADLDKFRLEQKLSQSEDALLKAELELKDVLIGQGYSPDDFSKVPAETMKIAKVKSGYEQSKSQYELAKREMEHATLIAPFDGVVANLFSKPYNPANTSEAFCTIIDSKGMEADFTVLENELAFIRMGDKVVITPYAGGDAFEGSVSEINPLVDANGMVKVKALVNAGGKLFSGMNVRVSVRRSLGERLVIPKSAVVLRSGKQVVFTLKDGKAMWNYVNTGLENAIECVVSDKSQKGIEDGLLEGDTVIVTGNLNLAHEAEVYVK", "soluble on expression in E. coli": "not soluble"}, {"sequence": "MRKLLVSLVLLIFSENVTANRVEQVHLSLSGKMDEMVVTWLTQGPLPNVTPYVMYGLSKDALRWTAKATTTSWKDQGSHGYVRYTHRATMTKMVPGDTYYYKVGSSQDMSDVYHFHQPDPTQPLRAAIFGDLSVYKGAPSIKQLTDATHDNHFDVIIHIGDIAYDLHDDEGNRGDDYMNAVQPFAAYVPYMVFAGNHESDSHFNQIINRFTMPKNGVYDNNLFWSFDYGLTHFIGLNSEYYAEIHTKEAQAQYKWLQADLAKNKAQWTIVMFHRPWYCSTKDKGGCNDYLDMLSRKGNSELPGLEKLLFDHKVDMVLYGHKHTYERMWPIYDGTGYKSSDSGHIRNAKAPVYILTGSAGCHTHEGPSDAPQSFSATRLGQYGYTRLKVYNTTHLSTYFVDTSDKVGNFMDKFYLEKD", "soluble on expression in E. coli": "soluble"}]}]}
